Substrate: CCO
Test: purified protein
Type: biochemical, Equus caballus
Conditions: no inhibitor, NAD+ 0.6 mM, pH 9.5 TRIS-HCl 0.05 M, room temperature

B1: alcohol dehydrogenase from horse liver (HLADH) (Equus caballus) (protein)
chain: STAGKVIKCKAAVLWEEKKPFSIEEVEVAPPKAHEVRIKMVATGICRSDDHVVSGTLVTPLPVIAGHEAAGIVESIGEGVTTVRPGDKVIPLFTPQCGKCRVCKHPEGNFCLKNDLSMPRGTMQDGTSRFTCRGKPIHHFLGTSTFSQYTVVDEISVAKIDAASPLEKVCLIGCGFSTGYGSAVKVAKVTQGSTCAVFGLGGVGLSVIMGCKAAGAARIIGVDINKDKFAKAKEVGATECVNPQDYKKPIQEVLTEMSNGGVDFSFEVIGRLDTMVTALSCCQEAYGVSVIVGVPPDSQNLSMNPMLLLSGRTWKGAIFGGFKSKDSVPKLVADFMAKKFALDPLITHVLPFEKINEGFDLLRSGESIRTILTF
notes: commercial native enzyme from horse liver (Fluka AG), full length, used as received
For B1, which Km is on record?
Its Km is 46.7 ± 0.8 mM.

From article PMC2267099, “Inhibition of Horse Liver Alcohol Dehydrogenase by Methyltin Compounds” (Bioinorganic Chemistry and Applications, 2005)
